From article PMC7082302 come the findings set out here.

What all share (experiment): SEC; analytical SEC, Superdex 200 Increase 10/300 GL, buffer W (100 mM Tris-HCl pH 8.0, 150 mM NaCl, 2.5 mM EDTA); protein solutions from the two AEC elution peaks; oligomeric state from the elution volume by the column's calibration
(In general: In gel filtration, larger molecules generally elute earlier.)

The target of test [1] is Chlamydomonas reinhardtii truncated hemoglobin THB11, full length (Chlamydomonas reinhardtii).
The target of test [2] is THB11-N (THB11 lacking the N-terminal 41 amino acids) (Chlamydomonas reinhardtii).
Test [3] has as its target THB11-C (THB11 lacking the C-terminal 225 residues) (Chlamydomonas reinhardtii).

“And” between values parts separate entries of the source, which are not always exact repeats. Equal values may be shown once.

By stoichiometry N is commonly meant the number of molecules, sites or subunits per partner or assembly. Consider “Chlamydomonas reinhardtii truncated hemoglobin THB11, full length (natural protein)”, for which the stoichiometry N in test [1] was 3 and 7.
As to “THB11-N (THB11 lacking the N-terminal 41 amino acids) (domain or fragment)”, the stoichiometry N in test [2] was 3 and 7.
“THB11-C (THB11 lacking the C-terminal 225 residues) (domain or fragment)” had a stoichiometry N in test [3] of 3.
